Numbering of substitutions follows the chain as printed. “Also recorded” adds a separate entry of the source.
B1: HEPV: 12 kDa recombinant fragment of the collagen V pro-α1 chain, residues Ile824 to Pro950, SEQ ID NO. 1, binds heparin (protein, listed as Homo sapiens)
chain: IKGDRGEIGPPGPRGEDGPEGPKGRGGPNGDPGPLGPPGEKGKLGVPGLPGYPGRQGPKGSIGFPGFPGANGEKGGRGTPGKPGPRGQRGPTGPRGERGPRGITGKPGPKGNSGGDGPAGPPGERGP
modifications: HEPV
B2: ΔHBS-HEPV: non-functional HEPV mutant, SEQ ID NO. 4, Lys905, Arg909 and Arg912 replaced with alanines; negative control (protein)
chain: B1 chain with K82A, R86A, R89A
modifications: Synthetic Mutant of HEPV
notes: 4, Lys905, Arg909 and Arg912 replaced with alanines; negative control

Columns and labels:
[1] = Heparin-Sepharose affinity chromatography (NaCl gradient elution); type: binding; details: linear NaCl gradient 0-500 mM, Tris-HCl pH 7.4
Protocol: Heparin-Sepharose affinity columns (HiTrap Heparin, Amersham) were equilibrated in 50 mM Tris-HCl (pH 7.4). Protein samples were loaded onto a column, and a programmed linear gradient of 0-500 mM NaCl, 1M Tris-HCl (pH 7.4) was applied at a flow rate of 0.5 ml/min, confirmed by continuous conductivity measurement. Fractions (1 ml) were collected, and the elution profile of protein samples was determined by monitoring the absorbance at 214 nm. To accurately compare elution positions of the mutant, its elution with NaCl gradient was achieved versus a standard HEPV elution.
The affinity of both peptides for heparin is compared, on a heparin-sepharose column, determined with the necessary quantity of NaCl to elute the peptides.

[2] = test system: FGF-2 induced angiogenesis; test: Hemoglobin measurement in implanted FGF-2 sponges; type: in vivo, nude mice; details: 20 μg peptide first day then every two days, after 7 days of treatment
From the text: (B) Formation of new blood vessels in nude mice implanted with a sponge impregnated with FGF-2 or PBS. After repeated treatments with peptides HEPV or HEPV-ΔHBS, the sponges are extracted and the presence of hemoglobin quantified. The presence of hemoglobin reflects the blood vessels content, as documented by the photos.
Disc Cellspon cellulose sponges (thickness 2 mm, diameter 10 mm; Cellomeda, Turku, Finland) were implanted under the skin of the mice. Prior to implantation, the sponges were hydrated with 50 μl of either PBS (negative control) or FGF-2 (200 ng/50 μl; positive angiogenic control) (recombinant FGF-2, Eurobio-AbCys, Les Ulis, France). […]
After implantation of the PBS or FGF-2 treated sponges and treatment with 50 μl containing 50 μg HEP peptides at DO, 2, 3 and 5, the hemoglobin content was measured at D8. […] Each sponge was homogenized in 1 ml of RIPA lysis buffer containing a cocktail of protease inhibitors, centrifuged at 200 g, and the supernatants were quantified. The extent of vascularization of the sponge implants was assessed by measuring the concentration of hemoglobin with Drabkin's reagent (Sigma-Aldrich, Saint-Quentin Fallavier, France). […]
20 μg of HEPV or ΔHBS-HEPV have been injected simultaneously with PBS or FGF-2, at the first day and then every two days. After 7 days of treatment, sponges are taken out and analyzed. […]

[3] = test system: FGF-2-induced ERK1/2 and Akt phosphorylation in HUVEC; test: Phosphorylation assay (Western blot) after FGF-2 stimulation; type: cell-based; details: peptide 8 μg/mL 24 h, FGF-2 50 ng/mL
Protocol: (§1) HUVEC were seeded at 2.10^5 cells/wells in ECGM2 in 6-well plates. The cells were treated with HEPV or ΔHBS-HEPV (8 μg/mL) during 24 h in serum free medium and then stimulated with FGF-2 or VEGF (50 ng/mL) for 5 or 20 minutes at 37° C. Cells were then washed twice with cold PBS and scraped and lysed at 4° C. in lysis buffer 1% NP-40 (150 mM NaCl, 50 mM Hepes pH 7.4, 5 mM EDTA, 10% glycerol, 1% NP-40, complete protease inhibitor cocktail (Roche), 1 mM Na3VO4). After centrifugation (13 000 g, 15 min, 4° C.), soluble proteins were collected. Protein amount was determined by BCA protein assay (Pierce) and equal amounts of proteins (10 μg) were loaded on SDS-PAGE and transfer on PVDF membrane at 100 V during 1 h. The blots were blocked with 5% BSA in TBS-T buffer (20 αmM Tris-HCl pH 7.4 and 0.05% Tween 20) and incubated with primary antibodies in TBST containing 5% bovine serum albumin, overnight at 4° C. Immunoreactivity was detected by sequential incubation with horseradish peroxidase-conjugated secondary antibodies purchased and ECL detection reagents purchased from Biorad. The antibodies used for phospho-protein detection were the followings: anti-AKT, anti-phospho-Akt (Ser473), anti-ERK1/2 and anti-phospho-ERK1/2 (Thr202/Tyr204, Thr185/Tyr187) (all from Cell Signaling Technology).
The aim of the experiments presented in FIG. 4 was to determine if, after incubation of endothelial cells with the peptide HEPV, the response to FGF-2 was affected by the presence of this peptide. The measured response to FGF-2 is the level of phosphorylation of proteins ERK 1/2 and Akt, involved in the signalization pathway of FGF-2 and VEGF, as determined with specific antibodies.
Endothelial cells HUVEC have been treated during 24 hours with HEPV or the control peptide ΔHBS-HEPV, and have then been stimulated with FGF-2 (FIG. 4A) or VEGF (50 ng/ml) (FIG. 4B).

[4] = test system: human dermal microvascular endothelial cells (HDMEC); test: Quantitative real-time RT-PCR of collagen genes in HEPV-treated endothelial cells; type: cell-based; details: HDMEC treated with HEPV for 4, 12 and 24 hours; relative to untreated controls, normalized to L30
Protocol: Expression of COL14A1 and COL18A1 mRNA in human dermal microvascular endothelial cells (HDMEC) treated with HEPV for 4, 12 and 24 hours, analyzed by real-time PCR. Values are normalized to the house keeping gene L30. Quantification is expressed relative to controls (cells cultivated in the same conditions without HEPV). Values are mean±SEM (n=3).
Total RNA was isolated from 8×10^6 cells by phenol-chloroform-isopropanol extraction (Trizol Reagent, Invitrogen). A reverse transcriptase reaction was performed on 1 μg of RNA using M-MLV reverse transcriptase (Promega). Quantitative PCRs were performed using SYBR Green Supermix (Biorad) and specific primers using a I-Cycler Optical System (Biorad). The following primers were used: […]
L30 was selected as housekeeping gene and used for normalization. Relative transcript abundances were determined as well known by the person skilled in the art. Relative gene expression was determined using the 2^−ΔΔC^T method. Student's t-tests were used to determine statistical significance (n=4).
A transcriptomic analysis has been performed, in order to identify the HEPV-regulated genes. Endothelial HDMEC cells have been treated with HEPV or not, for 4, 12 and 24 hours.

[5] = Organ distribution of the peptide after injection into the blood system; type: in vivo; details: mouse
[6] = test system: murine TS/Apc breast cancer cells implanted subcutaneously; test: Antitumor activity, tumor growth by caliper; type: in vivo, nude mice; details: 50 μg peptide every 2 days, versus HEPV-ΔHBS control; from day 20 of treatment
Protocol: (A) Murine Tsa/Pc breast cancer cells implanted subcutaneously are treated from day 5 repeatedly by peritumoral injections of 50 μl PBS containing 50 μg control (HEPV-ΔHBS) of HEPV peptides every 2 days. […] Tumors sections were immunostained using an anti-CD31 antibody that detects blood vessels (B) or an anti-Ki67 antibody that stains proliferating cells (C).
TS/Apc-pGL3 is a cell line derived from the original adenocarcinoma TS/Apc mouse cell line stably transfected with the pGL3-luciferase reporter gene (Promega, Charbonnieres, France). Cells were cultured at 37° C. in a humidified 5% CO2 incubator in RPMI 1640 supplemented with 1% glutamine, 10% fetal bovine serum, 50 units/ml penicillin, 50 μg/ml streptomycin, β-mercaptoethanol (25 μM) and 700 μg/ml Geneticin® (G418 sulphate; Gibco, Paisley, UK).
Twenty female athymic Swiss nude mice, purchased from Janvier (Le Genest Saint Isle, France) at 6-8 weeks of age were used and maintained under specific pathogen-free conditions. Mice received a subcutaneous (s.c.) injection of 10^6 TS/Apc-pGL3 cells suspended in 200 μl of PBS into the right flank usually results in formation of 6-8 mm-diameter tumors after one week. […] Tumor growth was evaluated using calipers.
Tumors have been induced by implantation of murine breast cancer cells (TSA) in nude mice. […] The volume of the tumors is measured with a caliper.

[7] = test system: VEGF-induced ERK1/2 phosphorylation in HUVEC; test: Phosphorylation assay (Western blot) after VEGF stimulation; type: cell-based; details: peptide 8 μg/mL 24 h, VEGF 50 ng/ml
Protocol: as §1, with “The blots were blocked with 5% BSA in TBS-T buffer (20 αmM Tris-HCl pH 7.4 and 0.05% Tween 20) and incubated with primary antibodies in TBST containing 5% bovine serum albumin, overnight at 4° C.” left out, “The antibodies used for phospho-protein detection were the followings: anti-AKT, anti-phospho-Akt (Ser473), anti-ERK1/2 and anti-phospho-ERK1/2 (Thr202/Tyr204, Thr185/Tyr187) (all from Cell Signaling Technology).” left out
The aim of the experiments presented in FIG. 4 was to determine if, after incubation of endothelial cells with the peptide HEPV, the response to FGF-2 was affected by the presence of this peptide. The measured response to FGF-2 is the level of phosphorylation of proteins ERK 1/2 and Akt, involved in the signalization pathway of FGF-2 and VEGF, as determined with specific antibodies. […]

[8] = test system: murine TS/Apc breast cancer tumors; test: Immunohistology of tumor sections (anti-CD31, anti-Ki67); type: in vivo, nude mice
Protocol: At day 20, 3 mice/group were sacrificed for immunohistology studies. At day 35 days after implantation all remaining tumors were extracted.
Frozen sections (8 μm) from tumors were fixed in acetone for 10 min. Sections were then washed 3×5 min in Tris-buffered saline containing 0.1% Tween 20, and endogenous peroxidases were blocked with 0.1% H2O2 in methanol for 20 min. Sections were then sequentially incubated for 1 h with a rat monoclonal anti-CD31 antibody (MEC13.3;1:500; Pharmingen) or rabbit anti-Ki67 (1:100; AbCAM) and for 1 h with goat anti-rat antibody for CD31 (1:500; Cell-signaling) or goat anti-rabbit for Ki67 (1:200; Dako). […] Sections were counterstained with hematoxylin and all were mounted.
Staining against the endothelial marker CD31 by means of immunohistochemistry was followed by observation under low magnification scope (100×), five field of view of each tumor (5 tumors by condition). Then, vessels quantity were measured in each of these areas utilizing ImageJ software (http://rsbweb.nih.gov/ij). All counts were performed in a blinded manner.
After immunohistochemical staining against Ki67, slides were observed under high magnification scope (200×). Six to nine areas by tumor were photographed. These photographs were analyzed by the plugging ImmunoRatio in ImageJ software (http://rsbweb.nih.gov/ij). The Ki67 index was evaluated in a blinded manner and calculated as Ki67-positive cells divided by all tumor cells in one field.
Mice from each group are sacrificed at day 20 and day 33 to check the formation of novel blood vessels. The account of the blood vessels is realized by observations of the tumors samples.
The proliferation of tumor cells with an antibody anti-Ki67 is also realized on these tumor samples.

Molecule | NaCl concentration needed to elute the peptide from heparin-sepharose [1] | Decrease of hemoglobin level in sponges, in comparison with mice treated with ΔHBS-HEPV [2] | Phosphorylation of Akt after stimulation with FGF-2 [3] | Phosphorylation of ERK1/2 after stimulation with FGF-2 [3] | Expression of COL4A1 mRNA [4] | Expression of COL18A1 mRNA [4] | Toxicity (concluded from absence of liver accumulation) [5] | Accumulation in various organs ([5]; results not shown) | Accumulation into the liver ([5]; results not shown) | Tumor growth (tumor volume) [6] | Phosphorylation of ERK1/2 after stimulation with VEGF [7] | Blood vessels density in tumors (anti-CD31), compared to ΔHBS-HEPV-treated mice ([8]; day 20) | Tumor cells proliferation (anti-Ki67) ([8]; day 20) | Blood vessels density in tumors (anti-CD31), compared to ΔHBS-HEPV-treated mice ([8]; day 33) | Tumor cells proliferation (anti-Ki67) ([8]; day 33)
B1 | 0.35 M | 2.5 times | inhibits | inhibited | up-regulated | up-regulated | non-toxic | does not accumulate non-specifically in various organs, except in kidney and bladder | does not accumulate into the liver | slows down; also recorded: significantly (p<0.05) slowed down | present a phosphorylation of ERK1/2 | significant decrease | significant decrease | less significant | the proliferation strikes back
B2 | 0.2 M | – | – | inefficient | – | – | – | – | – | – | – | – | – | – | –
